Common to all, as to assay: purified protein
Substrate in data set [1]: CC(=O)N[C@H]1[C@H](Oc2ccc([N+](=O)[O-])cc2)O[C@H](CO)[C@@H](O)[C@@H]1O
Format: biochemical, Akkermansia muciniphila. Conditions: McIlvaine buffer.

Substrate in data set [2]: O=[N+]([O-])c1ccc(O[C@@H]2O[C@H](CO)[C@H](O)[C@H](O)[C@H]2O)cc1
To be noted: McIlvaine buffer, pH 5.0, 37 °C.

Substrate in data set [3]: C[C@@H]1O[C@@H](Oc2ccc([N+](=O)[O-])cc2)[C@@H](O)[C@H](O)[C@@H]1O
The class given is biochemical, Akkermansia muciniphila. Conditions: McIlvaine buffer, pH 5.6, 37 °C, text b19 prints 839 ± 46.72.

Setting [4] is: pH 5.6, 37 °C, text b19 prints 322.37 ± 43.64.

The results in this text go back to article PMC7459334, “Akkermansia muciniphila uses human milk oligosaccharides to thrive in the early life conditions in vitro” (Scientific Reports, 2020).

The Km is the substrate concentration at which the rate is half of its maximum. A word on the Vmax: it is the top rate of the reaction or transport when substrate is in excess. By kcat is commonly meant the maximal rate divided by the concentration of active sites. A word on the kcat/Km: it is the turnover number divided by the Michaelis constant.

B1: Amuc_0369 (Akkermansia muciniphila ATCC BAA-835) (protein)
chain: QEQIIPKPAEITLFTGSPARLTPDSLIITETQDKAFLDQAGQLQQMLSAGTGLPLPLKPAGQASKKAACIVIKKDPALAARGEEAYSIQSSPSGIILSAADARGIFYAGQSLVQMMPSVFHDRTGDKSAVRWNISETPFRITDYPRFSWRALMIDEARHFFGEKTIKQIIDQMALLKMNILHWHLTDDTGWRIEIKKYPRLTSIGSKRRESEIGTWNSGKSDGTPHEGFYTQEQIRDIVQYAARRNITIVPEIEMPGHASAAAVAYPFLSLKTPGEVPTTFIVNTAFDPTSEKTYAFLSDVLDEVTAIFPGRIIHIGGDEVRYDKQWKGVPEIEEFMKKNGMKSYADVQMHFTNRMSGIIAQKGRRMMGWNEIYGHDVNGDGGGKAGAKLDTNAVIQFWKGNTSLAKNAIRDGHDVINSLHTSTYLDYSYGSIPLQKAYGFEPVFPGLEKQYHSRVKGLGAQVWTEWISTPERLHYQAFPRACAFAEVGWTPAGKKDFPDFKKRLKAYSERMDLMGIKFARNVISQIDKSDFFNTPRIGTWTPATLTREEHSFDVTKLVKASGKHTVTLLYDKGAHAIEIESVALYENSREVSRDAHAGRSGAHKENIQYILNAPAPRQGATYTVKANFKGAGGRDSHGTVYFETP
In the case of B1, in data set [1] (setting [4]), the Km stood at 323.38 ± 43.64 µM, the Vmax amounted to 55.6 µM/min, the kcat was determined as 670 s⁻¹ and the kcat/Km amounted to 2.07e+06 M⁻¹ s⁻¹.

B2: Amuc_1686 (Akkermansia muciniphila ATCC BAA-835) (protein)
chain: AAPMPLPESNDGARHVFSTNQENFLMDGKPVKIISGEMHYPRVPRQHWKDRFQRIKAMGMNTVCTYLFWNVHEPEPGKWDFSGNLDFVEFIKEAQKAGLWVIVRPGPYVCAEWEFGGFPGWLLKDEDLKVRSQDPRFLEPAMAYLKKVCSMLEPLQITKGGPIIMAQVENEYGSYGSDKDYVKKHLDVIRKELPGVVPFTSDGPNDWMIKNGTLPGVVPAMNFGGGAKGAFANLEKHKGKTPRINGEFWVGWFDHWGKPKNGGSTEGFNRDLKWMLENNVSPNLFMAHGGTSFGFMNGANWEGAYTPDVTNYDYGAPISENGTLTDRYRTFRQTIQDYYGDTYKLPEPPAQPEMMELPPITFTETAGMFSRLPQPVIRKEPVHMEALGQSLGFILYRTKVNGPVKGELKMNNMQDRAIVYVDGKRQGAADRRYKQDSCDIVIPSGLHTVDIFVENMGRINFGGQIQGERKGIRGPITLDGKKLENFLIYNFPCKGVELIPFSGKKPAGDQPVFHRGYFNVSNPKDTYLDMRDGWKKGVVWVNGRNLGRFWFIGSQQALYCPGEYLKPGKNEIVVLDVDGGSGTVKGVKEAIYEVNRDPAMADVFRVGKPVAPAAGQLVHKGSFAKGADQQEIKFRAPVQARYIAIVSKNAHDNGPHAAIAELNFLDASGNLLPREQWSVVYADSHETTGEAAQAGLVMDNQPTTYWHTKWQGDNPRHPHMIVLDLGKVQKLSGFRYLPRQDRENGRIKDYEVYASPKPFKPAK
Turning to B2, in data set [2], the Km turned out to be 319.40 ± 259.30 µM, the Vmax is 29.3 µM/min, the kcat was 27.2 s⁻¹ and the kcat/Km turned out to be 70200 M⁻¹ s⁻¹.

B3: Amuc_2136 (Akkermansia muciniphila ATCC BAA-835) (protein)
chain: QDAKQIADSLSIPPVKAGAKQLPMPSVSGAQIKLLGADYEQLVNSKGKIAPVISDTPVNVSFKVTKDGKEAVSKDYEIMLQAPQAAQGNPKPRIIPEILQWKGGQGEYKLGNTVTIACPDKELGKLFAADMEDVLGKKVKLVAPGAKADISLSLLKGGNLGREGYRLQIARDGVRLGAAAPTGLFWGTRTLLQMLRQTPGSVPCGTAVDFPRYQLRGFMLDVARTPYPLSYLKDVIRTMAWYKMNDLHLVINNNYIFHEHYVDNGHDPFKESYAAFRLESKMKGKDGTPLTARDLFYTKKEFADLVSYARKYGVNIVPEFDTPGHALSFTRLRPDLIYKGPMNHEKRRCEMLDAANPETIDLVSKVFDEYMLKDPKLGRPVFADCGVVHVGADEFYGDKEDYRHFANAVLTHALKRGYTPRIWGSLSAKPGKTPVVSKGVQMNLWSTGWMKAWEAVNQGYDVINTNDGALYIVPFAGYYRMDRNHKGLYNNWIPNRIGNETLPSGHPQLLGGTFAVWNDETDIMHTGYAPYDIWGIISGSMDVLSQKLWGTAKAPDTFEQHRELVSSIGNAPRTNPLHKWKDSQPLTVKPSSLPQKLDKPALGPNYRLTMELELTAAPEGKEQVLLAAPEGELLAVMKDGTVGFRRDDSLEFSFGAKLPVGKKVKVEIVGEPEKTSLLLDGEPAGTAVLKNFSDKSKDFSDKFKHRPKVHRSTFILPLKELGSSFQGKVFHMNVQPL
Regarding B3, in data set [1] (pH 5.0, 37 °C), the Km came out at 714.55 ± 47.96 µM, the Vmax came out at 109 µM/min, the kcat was 1490 s⁻¹ and the kcat/Km came out at 2.08e+06 M⁻¹ s⁻¹.

B4: Amuc_0771 (Akkermansia muciniphila ATCC BAA-835) (protein)
chain: GPEAVQNVQKPALSGGPPVVFGFGGEGNQEFMLNGKPFQIRGAEMHPQRIPREYWRHRIRTAKAMGLNTIAFYVFWNDHEQPDGSFDFKTGNRDLEGFLKLCQEEGMWVLFRPGPYACGEWDLGGLPHYLLKDPKAKLRTTEDAKFMKAQTRYLEAVARVAEPFLAKNGGPILMTQLENEYGSYQRKDRKYMEWLKAFWSRKGFGPFYTSDGAGEHFLKGVVLPGVAVGLDPGLNDGHWAVANKCNPGVPVFSSETYPGWLRHWGEGNWAPTPGVVNHVRWFMDKGRSFSLFVFHGGTNFGFSAGANNGGPGKYQPDLTSYDYGSPVDEQGRMNEYYAQMREIILKKLPPEAAVPEPPADIPAMEIPEFTPAVHAGLWENLPKPFRSKFPQPPYFEQWNQNQGIAVYRTAVPSGPPETLEFTNVNDYAQVYLDGELVGTLDRRLGQKSVKLPERRKPGTLEVLVEAMGHINFHISMESDRKGIYGPVKLGTRELKNWTVRALPLKADSIVRAPKGKGPSQKREGAHFRAVVNIEEPQDTFLDMSRYVKGYVWVNGINVGRYWNVGPQLRLYVPAPFLKKGENVIDILDLHEKEPKPVRGMKERNKEPGKINTKNLDNQW
Regarding B4, in data set [2], the Km is given as 2,599 ± 565.27 μM, the Vmax was found to be 60.1 µM/min, the kcat is 13.8 s⁻¹ and the kcat/Km is 5670 M⁻¹ s⁻¹.

B5: Amuc_0010 (Akkermansia muciniphila ATCC BAA-835) (protein)
chain: QQSATKIITENGQPALALDEQFAARLRDGGMKQGSPATVPAEFSAAAPGLPLPADANHAAVRETAGERNRRMEWWRDAKFGMFIHYGLYSGLAGEWKGRPGGSEWIQKNVEVDTDTYAAEALPLFKPREGLTEEWAQLARDAGCQYVVLTSKHHEGFGLFDSALTDYDAKSAVNRDIIREYVDSCRKRGLKVGLYHSVIDWHHPSYDNTICPDLCYPAGQAAMLNRKNIPRDHAAYQKYLHAQVRELMTRYAPIDIMWWDYSQGAMEGAKGWKAPELMDMVRSINPGVIMNNRLYAYSGLNKNQAGTLDLRCGDYITPERFIPRRGYPGVDWESCMTVSDKWGYNRYDTNIKSPETIIEKLVECVTKGGNLLLNVNPMADGTIPEKVAATMRGVGRWLNINGEAVYGTRAFMQLDQPATINRQGDIFIFLIPPPDKEPAQPPSEGTMKELTAGAEHARMQPLDATGYENDGGTAVTLPAGYSKALLLGDNTALPVVNGTVLFKAHEHSKTPCSVIKLSK
Turning to B5, in data set [3], the Km was determined as 841.23 ± 46.72 µM, the Vmax is 19.8 µM/min, the kcat amounted to 378 s⁻¹ and the kcat/Km was found to be 451000 M⁻¹ s⁻¹.
